The results in this text go back to paper PMC6402204, “Production Optimization of an Active β-Galactosidase of Bifidobacterium animalis in Heterologous Expression Systems” (BioMed Research International, 2019).

Substrate in the data set: O=[N+]([O-])c1ccccc1O[C@@H]1O[C@H](CO)[C@H](O)[C@H](O)[C@H]1O
The data set can be described thus: purified protein. It is filed as biochemical, Bifidobacterium animalis. Particulars: pH 6.0, 100 mM Na2HPO4-citric acid, 60°C, oNPG 1.38-25 mM, free enzyme.

B1: bG42-106 (Bifidobacterium animalis subsp. lactis) (protein)
chain: MSASTQHRAHRWPQPLPGNDRKIWFGADYNPDQWPEDVQDEDIRLMKQAGVNIVSLAIFSWANIETSDGNFEFDWLDRVIDKLYKAGIAVDLASATASPPMWLTSAHPEVLRRDEQGHVIWPGARQHWRPTSPTFRTYALRLCREMAEHYKDNPAIVSWHVGNEYGCHNYFDYSDDAVQAFREWCRDRYGTIDKVNAAWGTNFWSQRLNSFEEILPPRYVGGEGNFTNPGRLLDFKHFCSDALKEFFCAERDVLSEVTPNIPLTTNFMVSASQNTLDYDDWAHEVDFVSNDHYFTPGSWHIDELAYSASLVDGISRKKPWFLMEQSTSAVNWREINPRKEPGELIRDSMLHLAMGADAICYFQWRQSRSGAEKFHSAMLPLAGEHSQIYRDVCALGADLDTLSDAGILRSKLSKARVAIVQDIQSEWATEHTATPTQHIREWTEPLDWFAAFANRGVTADVTPIHAQWDTYDAVVIPCVYLFSEEMAERLRTFVRNGGKAFVTYYSALADEHDRLHTEGWPGLIGDVVGVRIEEHCPLGTLFPGMLDHLDVSNGTVVHDLADVIDAIADDTTVLATFEADPATGMDGRAAITVHPYHEGGVAYIAGKLGRDGISQSLPEICAALGFELDADPRAGDVLRVVREQEDGAIFEFLFNRTRNTVTADRPAGDMLICSLATDSTDKVTLEPNGVLAFRR
notes: full-length, 695 residues, 78 kDa calculated, no signal peptide; C-terminal His6 (pET-30a(+)), E. coli BL21(DE3), Ni-NTA purified; homodimer by native PAGE (~180 kDa)
A word on the Km: it is the substrate concentration at which the rate is half of its maximum. In the case of B1, the Michaelis-Menten constant (Km) is 5.14 mM.
